Key:
[1] = molecular target: full-length human APLNR (hAPLNR) (human) (UniProt P35414); experiment: FACS, secondary antibody alone on HEK293/CRE-luc/hAPLNR cells
[2] = molecular target: T1, full length cynomolgus APLNR (MfAPLNR) (cynomolgus (Macaca fascicularis)); experiment: FACS, secondary antibody alone on HEK293/CRE-luc/MfAPLNR cells
T1 sequence: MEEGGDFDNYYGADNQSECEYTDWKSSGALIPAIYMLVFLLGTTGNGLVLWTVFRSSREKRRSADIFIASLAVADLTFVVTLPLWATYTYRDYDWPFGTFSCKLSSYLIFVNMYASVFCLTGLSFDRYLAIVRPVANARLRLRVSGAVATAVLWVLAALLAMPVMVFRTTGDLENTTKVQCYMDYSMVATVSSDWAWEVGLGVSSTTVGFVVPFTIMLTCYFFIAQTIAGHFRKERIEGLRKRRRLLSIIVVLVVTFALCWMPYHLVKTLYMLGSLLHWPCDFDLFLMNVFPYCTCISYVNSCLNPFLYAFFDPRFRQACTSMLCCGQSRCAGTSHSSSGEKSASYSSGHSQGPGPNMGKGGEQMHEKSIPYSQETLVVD

[3] = molecular target: T1, full length cynomolgus APLNR (MfAPLNR) (cynomolgus (Macaca fascicularis)); experiment: FACS, secondary antibody alone (4 ug/mL) on HEK293/CRE-luc/MfAPLNR cells
[4] = molecular target: full-length human APLNR (hAPLNR) (human) (UniProt P35414); experiment: FACS, secondary antibody alone (4 ug/mL) on HEK293/CRE-luc/hAPLNR cells

anti-human IgG antibody conjugated with Alexa 488 (secondary antibody alone)
Binding Ratio of Geom. Mean to Unstained Cells [1]: 2 fold | Binding Ratio of Geom. Mean to Unstained Cells [2]: 2 fold | Binding Ratio of Geom. Mean to Unstained Cells [3]: 2 fold | Binding Ratio of Geom. Mean to Unstained Cells [4]: 2 fold

anti-mouse IgG antibody conjugated with Alexa 647 (secondary antibody alone)
Binding Ratio of Geom. Mean to Unstained Cells [3]: 3 fold | Binding Ratio of Geom. Mean to Unstained Cells [4]: 4 fold

Reference: patent publication US20190177410A1
